One assay addresses biotinylated VEGF (UniProt P15692-4 27-191, limits assumed, biotinylated). The experiment in a line: VEGF capture ELISA, DVD-Ig captured by anti-human Fc, biotinylated VEGF.
Assay [1] deals with T1, biotin-labeled human DLL4 extracellular domain (human, UniProt Q9NR61 27-529, biotin-labeled).
T1 construct: extracellular domain
The experiment in a line: DLL4 capture ELISA, DVD-Ig captured by anti-human Fc, biotin-labeled human DLL4 ECD.

Assay [2] concerns the target T2, DLL4 ECD/His tag (R&D 1506-D4-050) (UniProt Q9NR61 27-529).
T2 construct: extracellular domain; Bought antigen coated on the ELISA plate; not shown: His tag
The experiment in a line: direct bind ELISA, DLL4 on plate; DLL4 VD C-term.; HC Long, LC Long. (In general: In an ELISA, binding on a coated surface is turned into a signal by an enzyme label.)

Assay [3] deals with T3, human DLL4 extracellular domain (human, UniProt Q9NR61 27-529, biotin label in the Notch-1 competition ELISA (sites not given)). The experiment in a line: cell-based or functional assay.
In assay [4] the target is T4, human DLL4 on 293G-human DLL4 cells (human, UniProt Q9NR61 27-685).
T4 construct: whole, on cells; no method paragraph describes this FACS assay
The assay is described as follows: FACS: inhibition of Notch1 binding to 293G-human DLL4 cells (competitor Notch1). A general note: Flow cytometry measures light scatter and fluorescence of single cells or particles in a stream.

For assay [5], the target named is T3, human DLL4 extracellular domain. The experiment in a line: competition ELISA: 14 nM biotin-labelled human DLL4 ECD pre-mixed with DVD-Ig, then on coated human Notch-1 (competitor Notch-1).

B1: DVD471 (bispecific antibody, human IgG1, kappa, L234A L235A)
heavy: not shown
light: DIQMTQSPSSLSASVGDRVTITCRASQDVSTAVAWYQQKPGKAPKLLIYSASFLYSGVPSRFSGSGSGTDFTLTISSLQPEDFATTYYCQQSYTGTVTFGQGTKVEIKRTVAAPSVFIFPPDIQMTQSPSSLSASVGDRVTITCRASQDVSTAVAWYQQKPGKAPKLLIYSASFLYSGVPSRFSGSGSGTDFTLTISSLQPEDFATYYCQQSYTTPPTFGQGTKVEIKRTVAAPSVFIFPPSDEQLKSGTASVVCLLNNFYPREAKVQWKVDNALQSGNSQESVTEQDSKDSTYSLSSTLTLSKADYEKHKVYACEVTHQGLSSPVTKSFNRGEC
notes: DVD-Ig, HC long / LC long; DLL4 domain N-terminal; also called DLL4 / VEGF DVD-Ig; DVD471H
What is called EC50 is the concentration needed to bring the measured effect to its halfway point. A lower EC50 goes with a more potent agent. For the molecule B1, the half-maximal effective concentration (EC50) with biotinylated VEGF stood at 0.56 nM; in assay [1], 0.17 nM.

B2: DVD518 (bispecific antibody, human IgG1, kappa, lambda)
heavy: not shown
light: DIQMTQSPSSLSASVGDRVTITCSASQDISNYLNWYQQKPGKAPKVLIYFTSSLHSGVPSRFSGSGSGTDFTLTISSLQPEDFATYYCQQYSTVPWTFGQGTKVEIKRTVAAPSVFIFPPQAVVTQESALTTSPGETVTLTCRSSTGAVTTSNYANWVQEKPDHLFTGLIGGTNNRAPGVPARFSGSLIGDKAALTITGAQTEDEAIYFCALWYSNHWVFGGGTKLTVLGQPKAAPSVTLFPPSSEELQANKATLVCLISDFYPGAVTVAWKADSSPVKAGVETTTPSKQSNNKYAASSYLSLTPEQWKSHRSYSCQVTHEGSTVEKTVAPTECS
notes: DVD-Ig; HC long, LC long linker; also called DVD518H; DVD518L
B2: the EC50 in assay [2] worked out at 5.9 nM.

B3: DVD485 (DLL4 (seq. 1) N-terminal / VEGF (AB071) C-terminal DVD-Ig, short HC linker, long LC linker) (bispecific antibody, human IgG1, kappa)
heavy: not shown
light: DIQMTQSPSSLSASVGDRVTITCRASQDVSTAVAWYQQKPGKAPKLLIYSASFLYSGVPSRFSGSGSGTDFTLTISSLQPEDFATTYYCQQSYTGTVTFGQGTKVEIKRTVAAPSVFIFPPDIQMTQSPSSLSASVGDRVTITCRASQVIRRSLAWYQQKPGKAPKLLIYAASNLASGVPSRFSGSGSGTDFTLTISSLQPEDFATYYCQQSNTSPLTFGQGTKVEIKRTVAAPSVFIFPPSDEQLKSGTASVVCLLNNFYPREAKVQWKVDNALQSGNSQESVTEQDSKDSTYSLSSTLTLSKADYEKHKVYACEVTHQGLSSPVTKSFNRGEC
notes: also called DVD485H/DVD485L
As usually defined, the IC50 is the concentration needed to halve the response being measured. A lower IC50 goes with higher potency. On to B3, for which, in assay [3], the “DVD-Ig Inhibition of sFlt1 (IC50, nM)” value amounted to 6.67 nM. In addition, the values for the 50% inhibitory concentration (IC50) in assay [4] and in assay [5] were 6.3 nM and 3.44 nM, respectively.

B4: DVD474 (VEGF (AB071) N-terminal / DLL4 (seq. 1) C-terminal DVD-Ig, long HC linker, long LC linker) (bispecific antibody, human IgG1, kappa)
heavy: not shown
light: DIQMTQSPSSLSASVGDRVTITCRASQVIRRSLAWYQQKPGKAPKLLIYAASNLASGVPSRFSGSGSGTDFTLTISSLQPEDFATYYCQQSNTSPLTFGQGTKVEIKRTVAAPSVFIFPPDIQMTQSPSSLSASVGDRVTITCRASQDVSTAVAWYQQKPGKAPKLLIYSASFLYSGVPSRFSGSGSGTDFTLTISSLQPEDFATTYYCQQSYTGTVTFGQGTKVEIKRTVAAPSVFIFPPSDEQLKSGTASVVCLLNNFYPREAKVQWKVDNALQSGNSQESVTEQDSKDSTYSLSSTLTLSKADYEKHKVYACEVTHQGLSSPVTKSFNRGEC
notes: also called DVD474H/DVD474L
Take B4: the “DVD-Ig Inhibition of sFlt1 (IC50, nM)” value in assay [3] was 0.93 nM. The IC50 came to 27.5 nM in assay [4] and 2.3 nM in assay [5].

B5: DVD486 (VEGF (AB071) N-terminal / DLL4 (seq. 1) C-terminal DVD-Ig, short HC linker, long LC linker) (bispecific antibody, human IgG1, kappa)
heavy: not shown
light: B4 light
notes: also called DVD486H/DVD486L
Turning to B5, in assay [3], the “DVD-Ig Inhibition of sFlt1 (IC50, nM)” value was 0.7 nM. The IC50 in assay [4] amounted to 10.2 nM; in assay [5] it was 2.91 nM.

B6: DVD470 (bispecific antibody, human IgG1, kappa)
heavy: not shown
light: DIQMTQSPSSLSASVGDRVTITCSASQDISNYLNWYQQKPGKAPKVLIYFTSSLHSGVPSRFSGSGSGTDFTLTISSLQPEDFATYYCQQYSTVPWTFGQGTKVEIKRTVAAPSVFIFPPDIQMTQSPSSLSASVGDRVTITCRASQDVSTAVAWYQQKPGKAPKLLIYSASFLYSGVPSRFSGSGSGTDFTLTISSLQPEDFATTYYCQQSYTGTVTFGQGTKVEIKRTVAAPSVFIFPPSDEQLKSGTASVVCLLNNFYPREAKVQWKVDNALQSGNSQESVTEQDSKDSTYSLSSTLTLSKADYEKHKVYACEVTHQGLSSPVTKSFNRGEC
notes: DVD-Ig; HC long, LC long linker; also called DVD470H; DVD470L
With B6, the EC50 in assay [2] is 0.19 nM.
